Reference: patent publication US20260098096A1

Target: Human CCR8 (human) (UniProt P51685)
Assay: cell-based or functional assay

Sequence of Human CCR8 (human) (P51685 whole entry): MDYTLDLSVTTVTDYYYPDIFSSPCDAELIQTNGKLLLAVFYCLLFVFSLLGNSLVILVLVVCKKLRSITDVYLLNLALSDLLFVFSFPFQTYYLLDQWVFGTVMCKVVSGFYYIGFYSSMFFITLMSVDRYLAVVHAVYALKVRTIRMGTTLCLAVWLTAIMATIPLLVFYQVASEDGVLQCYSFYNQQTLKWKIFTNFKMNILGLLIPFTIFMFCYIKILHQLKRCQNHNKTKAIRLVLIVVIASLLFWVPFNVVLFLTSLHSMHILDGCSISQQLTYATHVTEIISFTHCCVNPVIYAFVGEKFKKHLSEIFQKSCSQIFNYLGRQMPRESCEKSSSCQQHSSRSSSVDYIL

“human CCL1 (from UniProt P22362 24-96) (ligand)” showed an EC90 of chemotaxis of hCCR8 L1.2 cells of 5.84 nM.
